Measured values published in patent publication US20250163167A1 (SYNTHEKINE, published 2025).

T1: hIL10Rb-his (Sino Biological, Catalog#10945) (human, UniProt Q08334 20-220)
T1 construct: Bought; also called Sino Biological cat#10945-H08H; not shown: C-terminal poly-His tag
T1 sequence: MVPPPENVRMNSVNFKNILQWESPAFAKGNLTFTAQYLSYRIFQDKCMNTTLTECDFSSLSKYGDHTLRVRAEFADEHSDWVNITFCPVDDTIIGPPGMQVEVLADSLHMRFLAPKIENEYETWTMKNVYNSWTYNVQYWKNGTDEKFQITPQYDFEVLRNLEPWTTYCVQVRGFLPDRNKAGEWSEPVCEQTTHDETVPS

T2: mIL10Rb ECD antigen (mouse, UniProt Q61190 20-220)
T2 construct: Antigen of biopanning and PE-ELISA; also called extracellular domain of mIL10Rb
T2 sequence: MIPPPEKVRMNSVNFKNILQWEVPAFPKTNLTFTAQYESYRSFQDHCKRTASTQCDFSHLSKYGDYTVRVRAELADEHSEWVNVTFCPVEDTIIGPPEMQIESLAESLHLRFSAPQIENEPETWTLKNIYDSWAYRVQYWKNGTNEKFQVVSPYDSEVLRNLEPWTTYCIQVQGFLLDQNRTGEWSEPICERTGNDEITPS

T3: hIL10Ra-his (Sino Biological, Catalog#10419) (human, UniProt Q13651 22-235)
T3 construct: Bought; also called Sino Biological cat#10419-H08H; not shown: C-terminal poly-His tag
T3 sequence: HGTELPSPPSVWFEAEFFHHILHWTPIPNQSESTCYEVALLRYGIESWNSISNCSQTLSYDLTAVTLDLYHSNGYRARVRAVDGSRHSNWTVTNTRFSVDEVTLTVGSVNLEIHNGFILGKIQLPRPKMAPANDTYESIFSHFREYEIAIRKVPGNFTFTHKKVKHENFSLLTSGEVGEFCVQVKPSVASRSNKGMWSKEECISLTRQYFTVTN

B1: hIL-10Rb_VHH3 Mono-Fc (Fc fusion)
chain: QVQLQESGGGSVQAGGSLRLSCAASRYTYNSYCMGWFRQAPGKEREGVATIDSDGMTRYADSVKGRFTISKDNAKNTLYLQMNSLKPEDTAMYYCAADADCTIAAMTTNPLGQGTQVTVSS
notes: Mono-Fc VHH captured on Protein A; not shown: mono-Fc part
B2: DR1326 (anti mouse mIL10Rb VHH) (VHH)
VHH: QVQLQESGGGSVQAGGSLRLSCTASRYIALNACMAWIRQAPGSEREVVATIVTDGSRTYYADSVKGRFTISQDNAKNTMYLQMNGLKPEDTAMYYCAADRRCPVSRAPYEYELRYWGQGTQVTVSS
notes: Phage clone, periplasmic extract
B3: hIL-10Rb_VHH12 Mono-Fc (Fc fusion)
chain: QVQLQESGGGSVQAGGSLRLSCAASGYTYSSYCMGWFRQAPGKEREGVAHIDSDGSTSYADSVKGRFTISKDNAKNTLYLQMNSLKPEDTAMYYCAADPIPGPGYCDGGPNKYWGQGTQVTVSS
notes: as for B1
B4: DR1322 (anti mouse mIL10Rb VHH) (VHH)
VHH: QVQLQESGGGSVQAGGALRLSCTASGYTASSICMGWFRQAPGKERERVAVITTAASGTYYADSVNGRFSISQNNAKNTVYLQMNSLKPDDTAMYYCAATRRGGDCLDPLQTPAYNTWGQGTQVTVSS
notes: as for B2
B5: hIL-10Ra_VHH10 Mono-Fc (Fc fusion)
chain: QVQLQESGGGSVQAGGSLRLSCAASRYLYSIDYMAWFRQSPGKEREPVAVIYTASGATFYPDSVKGRFTISQDNAKMTVYLQMNSLKSEDTAMYYCAAVRKTDSYLFDAQSFTYWGQGTQVTVSS
notes: as for B1
B6: DR1324 (anti mouse mIL10Rb VHH) (VHH)
VHH: QVQLQESGGGSVQAGGSLRLSCATSGYASCSRAMRWYRQAPGKEREFVAYIDGVGSTGYADSVKGRFTISQDNAKYTAYLQMNSLKPEDTAMYYCNRGCRADGSNSLDNYWGQGTQVTVSS
notes: as for B2
B7: hIL-10Ra_VHH8 Mono-Fc (Fc fusion)
chain: QVQLQESGGGSVQAGGSLRLSCAASGYTYSMYCMGWFRQAPGKEREGVAQINSDGSTSYADSVKGRFTISKDNAKNTLYLQMNSLKPEDTAMYYCAADSRVYGGSWYERLCGPYTYEYNYWGQGTQVTVSS
notes: as for B1
B8: hIL-10Ra_VHH12 Mono-Fc (Fc fusion)
chain: QVQLQESGGGSVQAGGSLRLSCTVSGYTYSSNCMGWFRQAPGKEREGVATIYTGGGNTYYADSVKGRFTISQDNAKNTVYLQMNNLKPEDTAMYYCAAEPLSRVYGGSCPTPTFDYWGQGTQVTVSS
notes: as for B1
B9: hIL-10Ra_VHH9 Mono-Fc (Fc fusion)
chain: QVQLQESGGGSVQAGGSLRLSCAVSGYAYSTYCMGWFRQAPGKEREGVAAIDSGGSTSYADSVKGRFTISKDNAKNTLYLRMNSLKPEDTAMYYCAAVPPPPDGGSCLFLGPEIKVSKADFRYWGQGTQVTVSS
notes: as for B1
B10: hIL-10Rb_VHH1 Mono-Fc (Fc fusion)
chain: QVQLQESGGGSVQAGGSLRLSCAASGYTYSSGCMGWFRQAPGKEREAVAAINSDGSTSYADSVKGRFTISKDNAKNTLYLQMNSLKPEDTAMYYCAAEPYCSGGYPRWSVAEFGYWGQGTQVTVSS
notes: as for B1
B11: hIL-10Rb_VHH27 Mono-Fc (Fc fusion)
chain: QVQLQESGGGSVQTGGSLRLSCAASGYTYLRGCMGWFRQAPGKEREGVAVMDVVGDRRSYIDSVKGRFTISRDNAANSVYLQMDNLKPEDTAMYYCTAGPNCVGWRSGLDYWGQGTQVTVSS
notes: as for B1
B12: hIL-10Rb_VHH15 Mono-Fc (Fc fusion)
chain: QVQLQESGGGSVQAGGSLRLSCTVSRYTASVNYMGWFRQAPGKEREGVATIFTGAGTTYYANSVKGRFTISRDNAKNTAYLQMNSLKPEDTAIYYCAVDFRGGLLYRPAYEYTYRGQGTQVTVSS
notes: as for B1
B13: hIL-10Ra_VHH17 Mono-Fc (Fc fusion)
chain: QVQLQESGGGSVQAGGSLRLSCAASGYSNCSYDMTWYRQAPGKEREFVSAIHSDGSTRYADSVKGRFFISQDNAKNTVYLQMNSLKPEDTAMYYCKTDPLHCRAHGGSWYSVRANYWGQGTQVTVSS
notes: as for B1
B14: DR1327 (anti mouse mIL10Rb VHH) (VHH)
VHH: QVQLQESGGGSVQAGGSLRLSCAASGYTYNGKCMAWFRQAPGKEREVVAGIYTGGSSTYYADSVKGRFTISQDNAKNTVYLQMDSLKPEDTAMYYCATSRSCSDLRRRSIAYWGQGTQVTVSS
notes: as for B2
B15: DR1325 (anti mouse mIL10Rb VHH) (VHH)
VHH: QVQLQESGGGSVQAGGSLRLSCAASGYTYNRRFMGWFRQAPGKEREGLAIIYTPNSSTFYADSVTGRFTISQDSARNTVYLQMNSLKPEDTAMYYCAAARIASMTELSVRDMDYWGKGTQVTVSS
notes: as for B2
B16: hIL-10Ra_VHH6 Mono-Fc (Fc fusion)
chain: QVQLQESGGGSVQAGGSLRLSCAASRFTYSSYCMGWFRQAPGKEREGVASIDSDGSTSYTDSVKGRFTISKDNAKNTLYLQMNSLKPEDTAMYYCALDLMSTVVPGFCGFLLSAGMDYWGKGTQVTVSS
notes: as for B1
B17: DR1323 (anti mouse mIL10Rb VHH) (VHH)
VHH: QVQLQESGGGSVQAGGSLRLSCVASGDTYSRKYIAWVRQVPGKEREGVAVMYTPGSATYYTDTVMGRFTISQDNAKNTVYLQMNSLKPEDTAMYFCAAKASGSMFNFRDYTYWGQGTQVTVSS
notes: as for B2
B18: hIL-10Rb_VHH26 Mono-Fc (Fc fusion)
chain: QVQLQESGGGSVQAGGSLRLSCAASGYSYSSYCMGWFRQAPGKEREGVATIDSDGMTRYADSVKGRFTISKDNAKNTLYLQMNSLKPEDTAMYYCAAPLYDCDSGAVGRNPPYWGQGTQVTVSS
notes: as for B1
B19: hIL-10Ra_VHH14 Mono-Fc (Fc fusion)
chain: QVQLQESGGGSVQAGGSLRLSCGASGYTYSSYCMGWFRQVPGKEREGVAVIDSDGSTSYADSVKGRFTISKDNGKNTLYLQMNSLKPEDTAMYYCAADLGHYRPPCGVLYLGMDYWGKGTQVTVSS
notes: as for B1

What was measured:
[1] = molecular target: T1, hIL10Rb-his (Sino Biological, …); assay: SPR; ratio of experimental to calculated Rmax
[2] = molecular target: T1, hIL10Rb-his (Sino Biological, …); assay: SPR Biacore T200; mono-Fc VHH captured on Protein A chip, hIL10Rb-his analyte; 1:1 Langmuir fit
mIL10Rb ECD antigen = molecular target: T2, mIL10Rb ECD antigen; assay: periplasmic extract ELISA (PE-ELISA) of phage clones
[3] = molecular target: T3, hIL10Ra-his (Sino Biological, …); assay: SPR Biacore T200; mono-Fc VHH captured on Protein A chip, hIL10Ra-his analyte; 1:1 Langmuir fit
From the text: (§1) To confirm and evaluate binding affinities of the binding of the IL10Ra sdAbs, a representative example from each clonotype generated was selected for evaluation of binding via SPR. […] Buffer-subtracted sensograms were processed with Biacore T200 Evaluation Software and globally fit with a 1:1 Langmuir binding model (bulk shift set to zero) to extract kinetics and affinity constants (kₐ, kd, KD). RMAX<100 RU indicates surface density compatible with kinetics analysis. Calculated Rₘₐₓ values were generated using the equation: Rₘₐₓ=Load (RU)×valency of ligand×(Molecular weight of analyte/Molecular weight of ligand). Surface activity was defined as the ratio of experimental/calculated Rmax.
One representative example from each clonotype of IL10a generated in accordance with Examples 1-3 was selected for evaluation of binding via SPR as follows. […] All experiments were conducted in 10 mM Hepes, 150 mM NaCl, 0.05% (v/v) Polysorbate 20 (PS20) and 3 mM EDTA (HBS-EP+ buffer) on a Biacore T200 instrument equipped with a Protein A derivatized sensor chip (Cytiva). Mono-Fc VHH ligands were flowed at 5 μl/min for variable time ranging from 18 to 300 seconds, reaching the capture loads listed in the tables below. Following ligand capture, […], typically comprising at least five concentrations between 1 μM and 1 nM, were performed in either high performance or single cycle kinetics mode. Surface regeneration was achieved by flowing 10 mM glycine-HCl, pH 1.5 (60 seconds, 50 μL/min).

[4] = molecular target: T3, hIL10Ra-his (Sino Biological, …); assay: SPR; ratio of experimental to calculated Rmax
From the text: as §1
One representative example from each clonotype of IL10a generated in accordance with Examples 1-3 was selected for evaluation of binding via SPR as follows. […] All experiments were conducted in 10 mM Hepes, 150 mM NaCl, 0.05% (v/v) Polysorbate 20 (PS20) and 3 mM EDTA (HBS-EP+ buffer) on a Biacore T200 instrument equipped with a Protein A derivatized sensor chip (Cytiva). Mono-Fc VHH ligands were flowed at 5 μl/min for variable time ranging from 18 to 300 seconds, reaching the capture loads listed in the tables below. Following ligand capture, injections of a 2-fold dilution series of the extracellular domain of the […] modified to incorporate a C-terminal poly-His sequence, typically comprising at least five concentrations between 1 μM and 1 nM, were performed in either high performance or single cycle kinetics mode. Surface regeneration was achieved by flowing 10 mM glycine-HCl, pH 1.5 (60 seconds, 50 μL/min).

Binder | Surface Activity [1] [%] | Kd [2] [nM] | koff [2] [s⁻¹] | kon [2] [M⁻¹ s⁻¹] | binding result (mIL10Rb ECD antigen) | Kd [3] [nM] | koff [3] [s⁻¹] | kon [3] [M⁻¹ s⁻¹] | Surface Activity [4] [%]
B1 | 52 | 231 | 0.0214 | 92900 |  |  |  |  | 
B2 |  |  |  |  | binds |  |  |  | 
B3 | 67 | 12.9 | 0.00143 | 111000 |  |  |  |  | 
B4 |  |  |  |  | binds |  |  |  | 
B5 |  |  |  |  |  | 13.4 | 0.00139 | 104000 | 57
B6 |  |  |  |  | binds |  |  |  | 
B7 |  |  |  |  |  | 6.4 | 0.00107 | 168000 | 57
B8 |  |  |  |  |  | 7.7 | 0.00119 | 154000 | 73
B9 |  |  |  |  |  | 11.6 | 0.00115 | 99700 | 66
B10 | 82 | 8.3 | 0.00144 | 175000 |  |  |  |  | 
B11 | 24 | 2.4 | 0.0254 | 1.07e+07 |  |  |  |  | 
B12 | 18 | 121 | 0.00866 | 71800 |  |  |  |  | 
B13 |  |  |  |  |  | 6 | 0.00197 | 327000 | 35
B14 |  |  |  |  | binds |  |  |  | 
B15 |  |  |  |  | binds |  |  |  | 
B16 |  |  |  |  |  | 1.8 | 0.00019 | 106000 | 83
B17 |  |  |  |  | binds |  |  |  | 
B18 | 54 | 314 | 0.0213 | 67800 |  |  |  |  | 
B19 |  |  |  |  |  | 1.4 | 0.000136 | 98400 | 51
